Target: EIIA^Glc (UniProt P69783 2-169)
Test: SPR + ELISA

Sequence of EIIA^Glc (P69783 2-169): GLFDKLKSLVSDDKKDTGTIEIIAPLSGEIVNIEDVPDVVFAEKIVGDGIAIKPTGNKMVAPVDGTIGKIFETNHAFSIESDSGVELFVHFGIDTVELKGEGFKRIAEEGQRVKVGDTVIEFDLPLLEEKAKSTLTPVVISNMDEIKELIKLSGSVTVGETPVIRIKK

B1: EIIB^Glc (domain or fragment)
chain: EDATEDAKATGTSEMAPALVAAFGGKENITNLDACITRLRVSVADVSKVDQAGLKKLGAAGVVVAGSGVQAIFGTKSDNLKTEMDEYIRN
  Kd: > 10 µM
